Tests used:
HeLa Kyoto [1] = assay: solubility change mitosis vs G1/S (difference of NP-40 vs SDS log2 ratios) (log2 ratio difference); higher = more soluble in mitosis
HeLa Kyoto [2] = assay: thermal stability score vs G1/S (z-score of summed log2 fold changes over temperatures); higher = more thermally stable than in G1/S
HeLa Kyoto [3] = assay: melting temperature (median over replicates), in situ; higher = more thermally stable
[4] = cell cycle stage: early G1 (4.5 h after nocodazole release)
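Wherever melting temperature (median over replicates), in situ is given: HeLa Kyoto cells synchronized by double thymidine or nocodazole block, proteins quantified by TMT10plex mass spectrometry, three independent biological replicates.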
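Wherever solubility change mitosis vs G1/S (difference of NP-40 vs SDS log2 ratios) is given: synchronized HeLa Kyoto cells (double thymidine block for G1/S, nocodazole release for mitosis), protein amounts in NP-40 versus SDS lysates quantified by mass spectrometry, three biological replicates.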
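Wherever thermal stability score vs G1/S (z-score of summed log2 fold changes over temperatures) is given: synchronized HeLa Kyoto cells, proteins quantified by TMT10plex mass spectrometry, three biological replicates, mitosis taken 0.5 h after nocodazole release, G1/S directly after double thymidine block.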

| Substance | solubility change mitosis (log2) (HeLa Kyoto [1]) | further results |
| --- | --- | --- |
| ACACA | -0.227 | – |
| ACADSB | -0.0159 | – |
| ALYREF | 0.776 | – |
| ARPC3 | 0.222 | – |
| ARPC4 | -0.115 | – |
| CAMKMT | 0.137 | – |
| CAPZA1 | -0.0799 | – |
| CTBP1 | -0.0691 | – |
| DAP3 | -0.0659 | – |
| DDA1 | 0.3 | – |
| FMR1 | 0.261 | – |
| GNB2L1 | 0.272 | – |
| GOPC | -0.0477 | – |
| INPP4A | -0.0329 | – |
| KIAA0907 | 0.046 | – |
| KIAA1524 | -0.103 | – |
| KPNA2 | 0.136 | – |
| LEO1 | -0.0441 | – |
| MAGRVPSLLVLLVFPSSCLAFRSPLSVFKRFKETTRPFSNECLGTTRPVVPIDSSDFALDIRMPGVTPKQSDTYFCMSMRIPVDEEAFVIDFKPRASMDTVHHMLLFGCNMPSSTGSYWFCDEGTCTDKANILYAWARNAPPTRLPKGVGFRVGGETGSKYFVLQVHYGDISAFRDNNKDCSGVSLHLTRLPQPLIAGMYLMMSVDTVIPAGEKVVNSDISCHYKNYPMHVFAYRVHTHHLGKVVSGYRVRNGQWTLIGRQSPQLPQAFYPVGHPVDVSFGDLLAARCVFTGEGRTEATHIGGTSSDEMCNLYIMYYMEAKHAVSFMTCTQNVAPDMFRTIPPEANIPIPVKSDMVMMHEHHKETEYKDKIPLLQQPKREEEEVLDQGDFYSLLSKLLGEREDVVHVHKYNPTEKAESESDLVAEIANVVQKKDLGRSDAREGAEHERGNAILVRDRIHKFHRLVSTLRPPESRVFSLQQPPPGEGTWEPEHTGDFHMEEALDWPGVYLLPGQVSGVALDPKNNLVIFHRGDHVWDGNSFDSKFVYQQIGLGPIEEDTILVIDPNNAAVLQSSGKNLFYLPHGLSIDKDGNYWVTDVALHQVFKLDPNNKEGPVLILGRSMQPGSDQNHFCQPTDVAVDPGTGAIYVSDGYCNSRIVQFSPSGKFITQWGEESSGSSPLPGQFTVPHSLALVPLLGQLCVADRENGRIQCFKTDTKEFVREIKHSSFGRNVFAISYIPGLLFAVNGKPHFGDQEPVQGFVMNFSNGEIIDIFKPVRKHFDMPHDIVASEDGTVYIGDAHTNTVWKFTLTEKLEHRSVKKAGIEVQEIKEAEAVVETKMENKPTSSELQKMQEKQKLIKEPGSGVPVVLITTLLVIPVVVLLAIAIFIRWKKSRAFGDSEHKLETSSGRVLGRFRGKGSGGLNLGNFFASRKGYSRKGFDRLSTEGSDQEKEDDGSESEEEYSAPLPALAPSSS [PAM] | -0.0982 | thermal stability score (HeLa Kyoto [2]; [4]): -1.73; thermal stability score (HeLa Kyoto [2]; cell cycle stage: mitosis): -2.21 |
| METAP1 | 0.0188 | – |
| MIB1 | 0.06 | – |

| Substance | solubility change mitosis (log2) (HeLa Kyoto [1]) | further results |
| --- | --- | --- |
| MREIVHLQAGQCGNQIGAKFWEVISDEHGIDPTGTYHGDSDLQLERINVYYNEATGGKYVPRAVLVDLEPGTMDSVRSGPFGQIFRPDNFVFGQSGAGNNWAKGHYTEGAELVDSVLDVVRKEAESCDCLQGFQLTHSLGGGTGSGMGTLLISKIREEYPDRIMNTFSVVPSPKVSDTVVEPYNATLSVHQLVENTDETYCIDNEALYDICFRTLKLTTPTYGDLNHLVSATMSGVTTCLRFPGQLNADLRKLAVNMVPFPRLHFFMPGFAPLTSRGSQQYRALTVPELTQQMFDAKNMMAACDPRHGRYLTVAAVFRGRMSMKEVDEQMLNVQNKNSSYFVEWIPNNVKTAVCDIPPRGLKMSATFIGNSTAIQELFKRISEQFTAMFRRKAFLHWYTGEGMDEMEFTEAESNMNDLVSEYQQYQDATAEEEGEFEEEAEEEVA [TUBB4B] | – | melting temperature (HeLa Kyoto [3]; cell cycle stage: mitosis): 54.4 °C; thermal stability score (HeLa Kyoto [2]; [4]): 0.304; thermal stability score (HeLa Kyoto [2]; cell cycle stage: mitosis): -1.31 |
| MRPL10 | -0.0658 | – |
| MRPL11 | 0.173 | – |
| MRPL14 | 0.104 | – |
| MRPL23 | 0.185 | – |
| MRPL24 | 0.022 | – |
| MRPL27 | 0.243 | – |
| MRPL37 | -0.0819 | – |
| MRPL39 | -0.14 | – |
| MRPL45 | -0.0934 | – |
| MRPL48 | -0.0228 | – |
| MRPL51 | -0.136 | – |
| MRPL54 | 0.343 | – |
| MRPS7 | -0.0353 | – |
| MRPS15 | 0.176 | – |
| MRPS16 | -0.0244 | – |
| MRPS27 | -0.149 | – |
| MRPS34 | 0.0157 | – |
| MSGGRAPAVLLGGVASLLLSFVWMPALLPVASRLLLLPRVLLTMASGSPPTQPSPASDSGSGYVPGSVSAAFVTCPNEKVAKEIARAVVEKRLAACVNLIPQITSIYEWKGKIEEDSEVLMMIKTQSSLVPALTDFVRSVHPYEVAEVIALPVEQGNFPYLQWVRQVTESVSDSITVLP [CUTA] | – | melting temperature (HeLa Kyoto [3]; cell cycle stage: G1/S): 57.7 °C; melting temperature (HeLa Kyoto [3]; cell cycle stage: mitosis): 54.8 °C; thermal stability score (HeLa Kyoto [2]; [4]): -1.46; thermal stability score (HeLa Kyoto [2]; cell cycle stage: mitosis): -1.38 |
| MSGTRASNDRPPGAGGVKRGRLQQEAAATGSRVTVVLGAQWGDEGKGKVVDLLATDADIISRCQGGNNAGHTVVVDGKEYDFHLLPSGIINTKAVSFIGNGVVIHLPGLFEEAEKNEKKGLKDWEKRLIISDRAHLVFDFHQAVDGLQEVQRQAQEGKNIGTTKKGIGPTYSSKAARTGLRICDLLSDFDEFSSRFKNLAHQHQSMFPTLEIDIEGQLKRLKGFAERIRPMVRDGVYFMYEALHGPPKKILVEGANAALLDIDFGTYPFVTSSNCTVGGVCTGLGIPPQNIGDVYGVVKAYTTRVGIGAFPTEQINEIGGLLQTRGHEWGVTTGRKRRCGWLDLMILRYAHMVNGFTALALTKLDILDVLGEVKVGVSYKLNGKRIPYFPANQEMLQKVEVEYETLPGWKADTTGARRWEDLPPQAQNYIRFVENHVGVAVKWVGVGKSRESMIQLF [ADSSL1] | – | melting temperature (HeLa Kyoto [3]; cell cycle stage: G1/S): 55.3 °C; melting temperature (HeLa Kyoto [3]; cell cycle stage: mitosis): 55.4 °C; thermal stability score (HeLa Kyoto [2]; [4]): -1.69; thermal stability score (HeLa Kyoto [2]; cell cycle stage: mitosis): -2.13 |
| MTMR1 | 0.0778 | – |

| Substance | solubility change mitosis (log2) (HeLa Kyoto [1]) | further results |
| --- | --- | --- |
| MTOR | -0.154 | – |
| MYH14 | – | melting temperature (HeLa Kyoto [3]; cell cycle stage: G1/S): 53.1 °C; melting temperature (HeLa Kyoto [3]; cell cycle stage: mitosis): 52.2 °C; thermal stability score (HeLa Kyoto [2]; [4]): -0.174; thermal stability score (HeLa Kyoto [2]; cell cycle stage: mitosis): -1.24 |
| NCAPG | -0.0373 | – |
| NDUFB10 | 0.185 | – |
| NEGR1 | -0.204 | – |
| NOC2L | 0.667 | – |
| NUDT5 | 0.0137 | – |
| OLR1 | 0.51 | – |
| OXA1L | -0.112 | – |
| PHLDA3 | 0.0241 | – |
| POLR2A | 0.228 | – |
| POLR2C | 0.102 | – |
| POLR2K | 0.187 | – |
| PRKACA | -0.0702 | – |
| RAN | 0.0277 | – |
| RBM8A | 0.468 | – |
| RBX1 | -0.338 | – |
| RPL6 | 0.908 | – |
| RPL7 | 0.696 | – |
| RPL11 | 0.596 | – |
| RPL15 | 0.657 | – |

| Substance | solubility change mitosis (log2) (HeLa Kyoto [1]) | further results |
| --- | --- | --- |
| RPL23A | 0.826 | – |
| RPL24 | 0.971 | – |
| RPL27A | 1.02 | – |
| RPL31 | 0.763 | – |
| RPL34 | 0.894 | – |
| RPL36 | 0.849 | – |
| RPL36A | 0.902 | – |
| RPL38 | 0.638 | – |
| RPS3 | 0.437 | – |
| RPS6 | 0.803 | – |
| RPS11 | 0.597 | – |
| RPS12 | 0.588 | – |
| RPS14 | 0.203 | – |
| RPS27A | 0.852 | – |
| RSL1D1 | 1.5 | – |
| SETDB1 | -0.0625 | – |
| SNRPN | 0.368 | – |
| SUB1 | 0.154 | – |
| TCEA1 | -0.0112 | – |
| TOLLIP | 0.0779 | – |
| TRIM16 | -0.177 | – |

— the supplement of paper PMC5998384
